The target of this test is T1, TriTAC 75.
T1 construct: Single-chain MSLN/albumin/CD3 trispecific protein, 6xHis
The test can be described thus: Affinity measurement, method not stated; row 'Kd huCD3E' (faint print).

T1 sequence (chain, as listed by the source): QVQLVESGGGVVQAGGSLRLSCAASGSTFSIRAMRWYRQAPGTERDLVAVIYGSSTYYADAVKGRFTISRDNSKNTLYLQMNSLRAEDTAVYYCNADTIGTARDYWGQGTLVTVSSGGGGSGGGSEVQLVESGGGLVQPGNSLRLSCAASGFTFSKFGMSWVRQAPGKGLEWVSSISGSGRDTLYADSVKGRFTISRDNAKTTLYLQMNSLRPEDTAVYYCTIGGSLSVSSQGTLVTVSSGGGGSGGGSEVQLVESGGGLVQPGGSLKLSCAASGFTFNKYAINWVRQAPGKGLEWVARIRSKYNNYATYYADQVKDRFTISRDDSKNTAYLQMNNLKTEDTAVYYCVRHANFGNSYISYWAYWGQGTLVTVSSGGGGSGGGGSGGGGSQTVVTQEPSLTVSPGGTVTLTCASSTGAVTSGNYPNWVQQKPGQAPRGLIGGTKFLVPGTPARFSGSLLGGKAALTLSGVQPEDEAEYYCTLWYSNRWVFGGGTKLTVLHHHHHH

B1: human CD3ε (receptor, UniProt P07766 23-126, looked up)
chain: DGNEEMGGITQTPYKVSISGTTVILTCPQYPGSEILWQHNDKNIGGDEDDKNIGSDEDHLSLKEFSELEQSGYYVCYPRGSKPEDANFYLYLRARVCENCMEMD
notes: also called human CD3c (so in the source)
Regarding B1, the Kd turned out to be 10 nM.

For the origin of these results see patent US20200270362A1 (HARPOON THERAPEUTICS, published 2020).
